15 sequences from the DeepSol protein solubility set can be followed below.

The data set is described as follows: soluble on expression in E. coli; label from the status in PepcDB or PDB records.
As for “MTQITKFHGVFPPVPTIVNAQGELDKVGMATLLDHLIASKVNGVLLLGSGGEFCHMTNALRLETAEFCVRHINRRIPVLLGISSTSTQEVIEYGQHADRLEVDAVLVLNPYYARLTDEYIYHHFKTVANNIKSPVILYNFPALTGQDLSVDLITRLAQDHPNIIGIKDTVDNISHIREIINNVRPVRPDFVIFSGYDEYMMDTLILGGNGGIPATANFAPQLTCGIYRAWCEKEYETMFGLQRRLSALSTIYSLDSPFFGIIKKAIQLSGVDISTHVMPPVLPANEEHISNLKQILQRAGL”, the “soluble on expression in E. coli” value is reported as “not soluble”.
“MGSDKIHHHHHHMLAICQLVKMKRICFYLKMQKGYMALNKKLKGDGEVLKDSFLAGAGKAKIVFSQDDFPIKQFTGIHDNLYIRVLLIDSNQRFAFVSIDLTSLTKDRIDFYKSLIHQLTSIDEGNIWVSVTHTFSAPHIPLESQKDDEEKIISMMLFKTSAALREAINQALLSMKPADIGFSYSSCPLNINRNIPTRLGWWLGRNDDGYSNHDVRTVTLKQENNEIISILYNFDVQASVMDNVSTKSGELLISSDLVGKASSDIENTFGKNSVAIFLPGSAGDQAPIFKGSNWKIMKNNRLVCSSIHEEAYSLVDQLGVKLSQSVQRAVFKTEKFADNCEIKINHYSVYLPEQRVKYSTKALRPSKKYQFEKPVIHFLSLLIFCT”: the “soluble on expression in E. coli” value is on record as “not soluble”.
As to “MAIPAFHPGELNVYSAPGDVADVSRALRLTGRRVMLVPTMGALHEGHLALVRAAKRVPGSVVVVSIFVNPMQFGAGGDLDAYPRTPDDDLAQLRAEGVEIAFTPTTAAMYPDGLRTTVQPGPLAAELEGGPRPTHFAGVLTVVLKLLQIVRPDRVFFGEKDYQQLVLIRQLVADFNLDVAVVGVPTVREADGLAMSSRNRYLDPAQRAAAVALSAALTAAAHAATAGAQAALDAARAVLDAAPGVAVDYLELRDIGLGPMPLNGSGRLLVAARLGTTRLLDNIAIEIGTFAGTDRPDGYRA”, the “soluble on expression in E. coli” value was “soluble”.
On to “GMIQVPASFDIQGHRGCRGLLPENTIAAFTKALLLGVTTLEFDLVISKDNRVVVSHDTFFHHEITMMVDGEDVTEANEKNFNLYAMNYADIKEIDVGMKTHPRFKSQKKVPAVKPLFRELIETAEKLSAKIQYNGEIKSTVEGDNIDHPNIALFCDLVVAEIKKAHITDRFTLQSFDVRALEYMHSQYPDIKLSYLVETKGTLKKQLEKLSFTPAVYSPDVTLVSKKDIDAAHKLGMRVIPWTVNTKEEIETLISLGVDGIITDYPDLFFEK”, for which the “soluble on expression in E. coli” value is reported as “soluble”.
Consider “MISVTDLRPGTKVKMDGGLWECVEYQHQKLGRGGAKVVAKFKNLETGATVERTFNSGEKLEDIYVETRELQYLYPEGEEMVFMDLETYEQFAVPRSRVVGAEFFKEGMTALGDMYEGQPIKVTPPTVVELKVVDTPPGVRGDTVSGGSKPATLETGAVVQVPLFVEPGEVIKVDTRTGEYVGRA”, for which the “soluble on expression in E. coli” value is given as “soluble”.
Next, “SNILEKVVLKVLEDQQNIRLIRELLQTLYTSLCTLVQRVGKSVLVGNINMWVYRMETILHWQQQLNNIQITRPAFKGLTFTDLPLCLQLNIMQRLSDGRDLVSLGQAAPDLHVLSEDRLLWKKLCQYHFSERQIRKRLILSDKGQLDWKKMYFKLVRCYPRKEQYGDTLQLRKHCHILSWKGTDHPCTANNPESCSVSLSPQDFINLFKF”: “not soluble”.
“MGSDKIHHHHHHMARTTDRQRNTRSPRQARRQLNKLLRDPIVKPHNAAAVRIRLDEMMAILQHREYRPEQPSSTNQVNTHGQVQFDLARWYPEGGRLRYTLRPRGALLPIAFTVQDFGNHRKSLTRGLALAVAGAAHQLDQMKAANKLPLIMQPFSDWVHLLAIGLQNWLENGQVVFSLADLNGAYVLTSMPTAPATWLARLFGISLGNPDQSLTDLRRQRQEQADRLTTRLAAKFAIEEAPLVQAANDRAAKSIQLDAATMATLASDQAPLRSQKDVVDRLARGDYIVIDTEFVADRNQLDLTEISLLRVRHHQVDGAFDIFTQLPEDHHVMPFSVKITGITDDLLSQYGQPLPLAKAAVEQLLKHELVVGFALSNDLRALRAGLNVDITPVQAFDVAALARKTFGIGKKHTPSLQHYKEALGVDLPSHTALSDAQTTMALLEHLIWEGSPLITKDIGFEQRPPEHANDPEPYQKPDPSTS”: the “soluble on expression in E. coli” value is recorded as “not soluble”.
Regarding “MNTLISRQLGLLLHAHECVRRDIKIREAAEKNEPAPHAMCKIQDCVIMKEVLKHMTSCKEGPKCNSVHCASSRTILSHWKKCFNEECPVCKPIIEQRTAPPQDTTPAEPKKPEHDQIWHLEVPKTYRSELIEKIYKGIMSNVKPGTLSEAQMDTWKEYSRSAELQIFDTAQKLEAYYHMAREKVCRYQEGFPRRQKTEEKDESDGSEKEDEADDRLEGTSTDYQGS”, the “soluble on expression in E. coli” value was “not soluble”.
Turning to “MLLDEKALVTLQKLGLTYYGARVYITLVSLGSSDATELSIESEVPRTKIYNVLKRLEAEKWIAVEHTRPIIYTAKYPKDILKEKRVAFNSEINEVSNQLSEVYDKVIDNEVPKVWLLRGMNNITAKTINMIKRAKRDITLLGALYSENEIEQLKEELSYATKKGLHVRVISRQSIKLNNGELDIIKNLSSVIPQIKIGGPEFSKFVIIDDKELLILFSKVEDNILDIDSTIAIWIPNVSIASYQASIFNGIWNGYCQVDRC”, the “soluble on expression in E. coli” value is “not soluble”.
Next, “MSSQPNQSLIDGIRCLQYLVSSDRAIGCRELARLMDINTTRVNRLLMTMASIGLTMQDEHRRYLPGPGIHALAAQAIRGSALFSHALPILERHAPKDIVVALGVLWEDQIIYIYHSTPGSQGSQALAGFRMYPAWQSVPGVALLAAESDEALMQRFTPEQWRNLAPHVAQQRQRGYVLWHHADGEVSMAQPLGKHAAALAFAGMWRIDEAEAAARLQALKALNQLIAQ”: “not soluble”; “MNHMKKNILFDGLRSVARIGETAFVAARAGIKYATEKPSNAKLMRETFESLGSTYIKLGQFIASTPSLFPREYVEEFQGCLDQTPTLPFSYIQEVLAEEFEGRDLNQIFASIDETPLASASIAQVHAARLTTGEDVVIKVQKPGVETILYTDLNVVHWATKMLEKAIPKVKFASLSEIVEEIKIRMVREVDFIEEAQNLDDFVEYLKITNNQAATAPKVYHQFSTRRILTMERLYGVSLTDFDIVKKFAKDPSQVLITAMNTWFGSLMLCKSFHADLHAGNLMLLEDGRIGFIDFGIVGQLNPQVWTACLAFMDALQKTDYTAMAENMLKMGMTKTQIDTQVLAQDLERLFSGVLLADPQEILASKPSDLNDIMLDMVAVGERHGIKFPRDFALLFKQMLYFDRFMRVLAPYTDIYADQRLKMVQTIEPQSLLKH”: “not soluble”.
As to “MAHHHHHHMEGQSELVERVVRMQLTSPDFAEYCVAHVTDPKHRFLFSRNEDEAERRLYVRLLEGRGHQKRAETPAVVAPAFAPERTSSLMTHGGTAVLWMSLLDYFSSTPGVRGPHMPHMFRTEADLTAFVDMLDGAQREHVSLEDVVQFMLRRLPMTEVFLYVLCYMCDVRIHEVRRETRRRSSGACVTDSADGASDEKKLQAAGTLLFIANMLLLQHDALERPLRYLSVFEFYMQRMVEALAGTVPKNSPVDTFLRETVMVWSEGHVFGEEALDCMKRAIGCSLG”, the “soluble on expression in E. coli” value is “not soluble”.
Turning to “MLGSSSLSIRTTDDKSLFARTMDFTMEPDSKVIIVPRNYGIRLLEKENVVINNSYAFVGMGSTDITSPVLYDGVNEKGLMGAMLYYATFATYADEPKKGTRGINPVYVISQVLGNCVTVDDVIEKLTSYTLLNEANIILGFAPPLHYTFTDASGESIVIEPDKTGITIHRKTIGVMTNSPGYEWHQTNLRAYIGVTPNPPQDIMMGDLDLTPFGQGAGGLGLPGDFTPSARFLRVAYWKKYTEKAKNETEGVTNLFHILSSVNIPKGVVLTNEGKTDYTIYTSAMCAQSKNYYFKLYDNSRISAVSLMAENLNSQDLITFEWDRKQDIKQLNQVNVMS”, the “soluble on expression in E. coli” value is “soluble”.
Regarding “MLRQLTFLFPTKFHRGKKLRTQRYRGLQSKEKKKLSLLTTKFSDEAWGDNHKNKVVYRAQDRFHNPLFIVLMVVKKKLDHKKLIDNNSHYHVCI”, the “soluble on expression in E. coli” value is given as “not soluble”.
On to “MAEINIYQNPGQSLANIYKGFARQCNPGFVFPEAQTIEAWDIPLRLHPEFIPGGDISKADQQYSTLLAQEIANGVTIGFRMVNEKERVCNVEILPLLTSMAQNLDRIKARFGSGYLDRFKGSPNVYPTDVGFSTDASGGISQESGLLVSYGVNLRTLTPGTWQAMTLPEDIKALVGPGVGLRLDAPNFSDVFNTIKSGLRYTTAVTLLLAYFAAI”, for which the “soluble on expression in E. coli” value was “soluble”.
